Data: patent US20230279059A1 (VIB VZW, published 2023)

B8: recombinant Ena1B with N-terminal 6xHis tag and TEV cleavage site (other)
chain: MHHHHHHSSGENLYFQGNCSTNLSCCANGQKTIVQDKVCIDWTAAATAAIIYADNISQDIYASGYLKVDTGTGPVTIVFYSGGVTGTAVETIVVATGSSASFTVRRFDTVTILGTAAAETGEFCMTIRYTLS
B12: Bacillus cereus NVH 0075-95 Endospore appendage (Ena) 1B, wild type (other)
chain: MGNCSTNLSCCANGQKTIVQDKVCIDWTAAATAAIIYADNISQDIYASGYLKVDTGTGPVTIVFYSGGVTGTAVETIVVATGSSASFTVRRFDTVTILGTAAAETGEFCMTIRYTLS
notes: also called WT Ena1B; WT recEna1B

How the values were obtained:
[1] = target: the molecule itself; test: expression in E. coli, nsTEM
[2] = target: the molecule itself; test: expression in E. coli, ns-TEM
[3] = target: B12; test: immunogold TEM and cryoEM of ex vivo S-type Enas; both subunits within single fibers
[4] = target: the molecule itself; test: self-assembly of tag-free protein in the E. coli cytoplasm, negative stain TEM
[5] = target: the molecule itself; test: self-assembly after refolding by dialysis, EM
[6] = target: T1, split-BC Ena1B, C-terminal part (strands CDEFGHI) (Bacillus cereus NVH 0075-95); test: co-expression of the two halves in E. coli, NS-TEM
T1 construct: also called split BC construct, C-terminal half
T1 chain: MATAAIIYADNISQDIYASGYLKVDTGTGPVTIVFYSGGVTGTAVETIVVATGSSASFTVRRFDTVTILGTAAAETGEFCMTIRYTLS

[7] = target: the molecule itself; test: in vitro self-assembly after TEV cleavage, NS-TEM and cryo-EM
[8] = target: the molecule itself; test: self-assembly in the E. coli cytoplasm, NS-TEM
[9] = target: the molecule itself; test: self-assembly after refolding from 8M urea, negative stain TEM
[10] = target: B8; test: epitaxial growth on maleimide magnetic beads carrying 6×His_TEV_Ena1B multimers, nsTEM
[11] = target: the molecule itself; test: self-assembly after TEV cleavage of the His-tag, TEM
[12] = target: the molecule itself; test: in vitro self-assembly after TEV cleavage, cryo-EM

B1: Ena1B-HI-HA insertion variant (other)
chain: MGNCSTNLSCCANGQKTIVQDKVCIDWTAAATAAIIYADNISQDIYASGYLKVDTGTGPVTIVFYSGGVTGTAVETIVVATGSSASFTVRRFDTVTILGGSYPYDVPDYAGSAAETGEFCMTIRYTLS
binding result [1]: binds

B2: recEna1BΔNtc (deletion of residues 2-15 of WT Ena1B) (other)
chain: MKTIVQDKVCIDWTAAATAAIIYADNISQDIYASGYLKVDTGTGPVTIVFYSGGVTGTAVETIVVATGSSASFTVRRFDTVTILGTAAAETGEFCMTIRYTLS
binding result [2]: binds

B3: Bacillus cereus NVH 0075-95 Endospore appendage (Ena) 1A, wild type (other)
chain: MACECSSTVLTCCSDNSSNFVQDKVCNPWSSAEASTFTVYANNVNQNIVGTGYLTYDVGPGVSPANQITVTVLDSGGGTIQTFLVNEGTSISFTFRRFNIIQITTPATPIGTYQGEFCITTRYLMA
notes: also called KMP91697.1; WP_000742049.1
binding result [3]: binds
binding result [4]: binds

B4: recombinant Ena1C with N-terminal 6xHis tag and TEV cleavage site (other)
chain: MHHHHHHSSGENLYFQGKPHKNIGCFAPLSIICQPTCPCPPPILPPERGDAELVTNEFAGDILISNDFIPISQKQLKQTNTTVNIWKNDGIVSLSGTISIYNNRNSTNALSIQIISSTTNTFTALPGNTISYTGFDLQSVSVIDIPSDPSIYIEGRYCFQLTYCKSKRDCL
notes: also called recEna1C; WP_000802321
binding result [5]: binds

B5: split-BC Ena1B, N-terminal part (strands AB) (other)
chain: MGNCSTNLSCCANGQKTIVQDKVCIDWTAA
notes: also called split BC construct, N-terminal half
binding result [6]: binds

B6: Ena2A after removal of the 6×His-TEV blocker by TEV protease (other)
chain: MSCECSGSALTCCPDKNYVQDKVCSPWSATVVATAIDNVLYTNNINQNVVGTGFVKYDVGPGPITVEALDSAGGTIDTQTLNPGTSIAFTYRRFDSIQVVLPATPAGTYQGEFCITTRYPLS
notes: also called in vitro assembled Ena2A filament
binding result [7]: binds

B7: Ena2A without steric block (other)
chain: MSCECSGSALTCCPDKNYVQDKVCSPWSATVVATAIDNVLYTNNINQNVVGTGFVKYDVGPGPITVEALDSAGGTIDTQTLNPGTSIAFTYRRFDSIQVVLPATPAGTYQGEFCITTRYPLS
notes: also called WP_001277540.1
binding result [8]: binds

B8
binding result [9]: binds

B9: recEna1B after removal of the N-terminal 6xHis tag by TEV protease (other)
chain: GNCSTNLSCCANGQKTIVQDKVCIDWTAAATAAIIYADNISQDIYASGYLKVDTGTGPVTIVFYSGGVTGTAVETIVVATGSSASFTVRRFDTVTILGTAAAETGEFCMTIRYTLS
notes: also called in vitro Ena1B fibers; recENA1B (PDB7A02)
binding result [10]: binds
binding result [11]: binds

B10: Ena2C after removal of the 6×His-TEV blocker by TEV protease (other)
chain: MKNKKNIGCFAPLSIICPDPCPPPPPPNPNCERVTNEFAGNFLITNNTIPSAKDASQSMILWQSDGILLISGTVSVYNSTSSTETITIQIVGTVTNIFTVFPGNTISYTGKDLHSVSIINITSNPSLYLEGKYCCEFTCCL
notes: also called short L-like Ena2C filaments
binding result [12]: binds

B11: M-TEV-Ena1B (M-[…]-Ena1B), steric block of 6 amino acids (other)
chain: MENLYFQGNCSTNLSCCANGQKTIVQDKVCIDWTAAATAAIIYADNISQDIYASGYLKVDTGTGPVTIVFYSGGVTGTAVETIVVATGSSASFTVRRFDTVTILGTAAAETGEFCMTIRYTLS
notes: also called M-TEV-Ena1B (N=6)
binding result [2]: binds

B12
binding result [4]: binds

B13: M-His6-SSG-Ena1B, steric block of 9 amino acids (other)
chain: MHHHHHHSSGGNCSTNLSCCANGQKTIVQDKVCIDWTAAATAAIIYADNISQDIYASGYLKVDTGTGPVTIVFYSGGVTGTAVETIVVATGSSASFTVRRFDTVTILGTAAAETGEFCMTIRYTLS
binding result [2]: binds

B14: Ena1B-DE-Flag insertion variant (other)
chain: MGNCSTNLSCCANGQKTIVQDKVCIDWTAAATAAIIYADNISQDIYASGYLKVDTGSDYKDDDDKGSGPVTIVFYSGGVTGTAVETIVVATGSSASFTVRRFDTVTILGTAAAETGEFCMTIRYTLS
binding result [1]: binds
